The record followed here is patent US20120077731A1 (Ablynx, published 2012).

For assay [1], the target named is T1, Human soluble IL-6R (human, UniProt P08887 20-358).
T1 construct: Soluble recombinant form; biotinylated in some assays; also called hIL-6R; human IL-6R
T1 sequence (looked up): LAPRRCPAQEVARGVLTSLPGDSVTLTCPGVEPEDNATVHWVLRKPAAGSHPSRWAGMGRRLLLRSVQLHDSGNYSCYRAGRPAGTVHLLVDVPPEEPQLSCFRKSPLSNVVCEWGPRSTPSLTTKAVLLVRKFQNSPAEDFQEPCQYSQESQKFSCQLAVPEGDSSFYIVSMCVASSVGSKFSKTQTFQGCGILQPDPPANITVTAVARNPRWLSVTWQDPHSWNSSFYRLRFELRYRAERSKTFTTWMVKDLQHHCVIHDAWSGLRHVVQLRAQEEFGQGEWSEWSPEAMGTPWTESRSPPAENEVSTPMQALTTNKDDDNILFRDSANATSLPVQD
Put plainly: Biacore T100. (In general: Surface plasmon resonance follows binding to a sensor surface in real time, without labels.)

Assay [2] has as its target T2, Human membrane IL-6R on cells (human, UniProt P08887 20-468).
T2 sequence (looked up): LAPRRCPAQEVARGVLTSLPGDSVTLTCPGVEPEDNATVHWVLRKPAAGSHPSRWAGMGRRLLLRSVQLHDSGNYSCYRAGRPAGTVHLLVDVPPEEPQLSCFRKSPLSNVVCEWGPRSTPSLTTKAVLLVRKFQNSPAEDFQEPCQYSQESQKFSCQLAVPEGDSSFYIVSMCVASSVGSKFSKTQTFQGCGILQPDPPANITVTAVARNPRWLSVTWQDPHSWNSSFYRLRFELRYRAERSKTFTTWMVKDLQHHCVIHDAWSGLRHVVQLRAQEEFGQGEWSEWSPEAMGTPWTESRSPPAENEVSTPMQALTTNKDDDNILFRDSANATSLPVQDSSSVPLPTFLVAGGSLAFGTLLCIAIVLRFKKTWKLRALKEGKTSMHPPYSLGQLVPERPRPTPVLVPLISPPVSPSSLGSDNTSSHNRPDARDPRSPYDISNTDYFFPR
Put plainly: cell-based or functional assay.

Assay [3] deals with T2, Human membrane IL-6R on cells. The assay is described as follows: cell-based or functional assay. The source holds these as a separate data set.
The target in assay [4] is T1, Human soluble IL-6R. Put plainly: Biacore T100, IL-6R captured via mAb BN-12.
The target in assay [5] is T2, Human membrane IL-6R on cells. The assay is described as follows: flow cytometry, human PBL, lymphocytes donor 2. (In general: A flow cytometer gives signals particle by particle.)
Description: (§1) The Nanobodies were incubated in EDTA-treated blood from 2 donors and bound Nanobody was detected by flow cytometry. Lymphocytes, monocytes and granulocytes were gated based on FSC/SSC properties (FIG. 40) and bound Nanobodies were detected in the PE channel.
Assay [6] shares this target. The assay is described as follows: flow cytometry, human PBL, granulocytes donor 2.
Description: as §1
Assay [7] concerns the target T3, IL-27B (UniProt Q14213 21-229, limits assumed).
T3 sequence (looked up): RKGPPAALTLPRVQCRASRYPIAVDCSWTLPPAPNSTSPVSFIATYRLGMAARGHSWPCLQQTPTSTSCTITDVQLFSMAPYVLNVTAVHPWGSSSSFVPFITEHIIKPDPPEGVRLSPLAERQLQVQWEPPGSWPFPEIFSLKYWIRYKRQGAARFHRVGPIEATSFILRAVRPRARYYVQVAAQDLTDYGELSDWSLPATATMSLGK
Put plainly: competitive binding ELISA, similar setup (results not shown). On the technique in general: In an ELISA, binding on a coated surface is turned into a signal by an enzyme label.

Assay [8] has as its target T4, Cyno plasma sIL-6R (cynomolgus monkey, UniProt A0A2K5WN54 60-396).
T4 construct: also called cynomolgus sIL-6R
T4 sequence: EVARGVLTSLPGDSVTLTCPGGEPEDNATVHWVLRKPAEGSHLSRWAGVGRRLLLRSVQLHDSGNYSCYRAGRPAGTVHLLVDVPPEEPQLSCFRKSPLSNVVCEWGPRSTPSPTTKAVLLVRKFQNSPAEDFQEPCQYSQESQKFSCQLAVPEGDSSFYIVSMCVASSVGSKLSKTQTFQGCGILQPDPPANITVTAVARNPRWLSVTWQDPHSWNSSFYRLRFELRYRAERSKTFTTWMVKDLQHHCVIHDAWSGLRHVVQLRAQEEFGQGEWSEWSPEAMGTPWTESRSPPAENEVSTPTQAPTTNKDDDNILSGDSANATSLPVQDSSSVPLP
Put plainly: plasma potency assay, cyno plasma, 2.4 nM IL6; blocked ligand IL-6.
Description: All 5 affinity matured Nanobodies and the sequence optimized Nanobody were also tested in a plasma potency assay. […] TMB was used as substrate.

B1: PMP20A11 (VHH)
VHH: EVQLVESGGGLVQPGGSLRLSCAASGSVFKINVMAWYRQAPGKGRELVAGIISGGSTSYADSVKGRFTISRDNAKNTLYLQMNSLRPEDTAVYYCAFITTESDYDLGRRYWGQGTLVTVSS
notes: also called IL6R20A11; IL6R300; not shown: c-myc and (His)6 tags
As usually defined, the Kd is the constant that tells how readily two partners part at equilibrium. Broadly, the kon is a measure of how fast the partners come together. Higher therefore signals fast association. A word on the EC50: it is the midpoint of the concentration-response curve. The term IC50 denotes the midpoint of a concentration-inhibition curve. Low readings indicate greater potency, high ones weaker potency. As to B1, the Kd in assay [1] is 0.019 nM. In assay [2], the “IC50 (nM), TF-1 proliferation at 100 IU/mL IL-6” value was determined as 0.283 nM. In addition, the “IC50 (nM), TF-1 proliferation at 5000 IU/mL IL-6” value in assay [3] was 15.2 nM. This molecule also came in with an association rate constant (kon) in assay [4] of 1e+06 M⁻¹ s⁻¹. For the same molecule, the EC50 in assay [5] was determined as 2.92 nM; in assay [6] it was 5.61 nM. For the same molecule, the binding result in assay [7] was “no binding (tested: 100 nM)”. For the same molecule, the IC50 in assay [8] worked out at 0.09 nM.
